Changes are numbered by the printed parent chain.
B1: 3.1.9-1 (antibody, human IgG1, kappa, V domains shown)
VH: QVQLLQSGAAVTKPGASVRVSCEASGYNIRDYFIHWWRQAPGQGLQWVGWINPKTGQPNNPRQFQGRVSLTRHASWDFDTFSFYMDLKALRSDDTAVYFCARQRSDYWDFDVWGSGTQVTVSS
VL: DIQMTQSPSSLSARVGDTATITCQANGYLNWYQQRRGKAPKLLIYDGSKLERGVPARFSGRRWGQEYNLTINNLQPEDVATYFCQVYEFFGPGTRLDLKR
B2: 2.2.9-1 (antibody, human IgG1, kappa, V domains shown)
VH: B1 VH with Q3H, L5S, N28K, Y32H, L90V, V97I
VL: B1 VL
B3: 2.3.9-1 (antibody, human IgG1, kappa, V domains shown)
VH: B1 VH with Q3H, L5S, L90V, V97I
VL: B1 VL
B4: 1.1.117-1 (antibody, human IgG1, kappa, V domains shown)
VH: B1 VH
VL: B1 VL with R14S, A56S, N68I, V79I
B5: 3.1.12-1 (antibody, human IgG1, kappa, V domains shown)
VH: B1 VH
VL: B1 VL with N68I
B6: 2.2.12-1 (antibody, human IgG1, kappa, V domains shown)
VH: B1 VH with Q3H, L5S, N28K, Y32H, L90V, V97I
VL: B1 VL with N68I
B7: 2.3.12-1 (antibody, human IgG1, kappa, V domains shown)
VH: B1 VH with Q3H, L5S, L90V, V97I
VL: B1 VL with N68I
B8: 1.1.118-1 (antibody, human IgG1, kappa, V domains shown)
VH: B1 VH
VL: B1 VL with R14S, T18R, A56S, R61S, N68I, N72S, N73S, V79I
B9: 3.1.13-1 (antibody, human IgG1, kappa, V domains shown)
VH: B1 VH
VL: B1 VL with T18R, R61S, N68I, N72S, N73S
B10: 2.2.13-1 (antibody, human IgG1, kappa, V domains shown)
VH: B1 VH with Q3H, L5S, N28K, Y32H, L90V, V97I
VL: B1 VL with T18R, R61S, N68I, N72S, N73S
B11: 2.3.13-1 (antibody, human IgG1, kappa, V domains shown)
VH: B1 VH with Q3H, L5S, L90V, V97I
VL: B1 VL with T18R, R61S, N68I, N72S, N73S
B12: 1.1.104-1 (antibody, human IgG1, kappa, V domains shown)
VH: B1 VH
VL: B1 VL with R14S, A56S, N68T, V79I
B13: 3.1.15-1 (antibody, human IgG1, kappa, V domains shown)
VH: B1 VH
VL: B1 VL with N68T
B14: 2.2.15-1 (antibody, human IgG1, kappa, V domains shown)
VH: B1 VH with Q3H, L5S, N28K, Y32H, L90V, V97I
VL: B1 VL with N68T
B15: 2.3.15-1 (antibody, human IgG1, kappa, V domains shown)
VH: B1 VH with Q3H, L5S, L90V, V97I
VL: B1 VL with N68T
B16: 1.1.119-1 (antibody, human IgG1, kappa, V domains shown)
VH: B1 VH
VL: B1 VL with R14S, T18R, A56S, R61S, N68T, N72S, N73S, V79I
B17: 3.1.7-1 (antibody, human IgG1, kappa, V domains shown)
VH: B1 VH
VL: B1 VL with T18R, R61S, N68T, N72S, N73S
B18: 2.2.7-1 (antibody, human IgG1, kappa, V domains shown)
VH: B1 VH with Q3H, L5S, N28K, Y32H, L90V, V97I
VL: B1 VL with T18R, R61S, N68T, N72S, N73S
B19: 2.3.7-1 (antibody, human IgG1, kappa, V domains shown)
VH: B1 VH with Q3H, L5S, L90V, V97I
VL: B1 VL with T18R, R61S, N68T, N72S, N73S
B20: 1.1.78-1 (antibody, human IgG1, kappa, V domains shown)
VH: B1 VH
VL: B1 VL with R14S, A56S, N68H, V79I
B21: 3.1.17-1 (antibody, human IgG1, kappa, V domains shown)
VH: B1 VH
VL: B1 VL with N68H
B22: 2.2.17-1 (antibody, human IgG1, kappa, V domains shown)
VH: B1 VH with Q3H, L5S, N28K, Y32H, L90V, V97I
VL: B1 VL with N68H
B23: 2.3.17-1 (antibody, human IgG1, kappa, V domains shown)
VH: B1 VH with Q3H, L5S, L90V, V97I
VL: B1 VL with N68H
B24: 1.1.102-1 (antibody, human IgG1, kappa, V domains shown)
VH: B1 VH
VL: B1 VL with R14S, T18R, A56S, R61S, N68H, N72S, N73S, V79I
B25: 3.1.18-1 (antibody, human IgG1, kappa, V domains shown)
VH: B1 VH
VL: B1 VL with T18R, R61S, N68H, N72S, N73S
B26: 2.2.18-1 (antibody, human IgG1, kappa, V domains shown)
VH: B1 VH with Q3H, L5S, N28K, Y32H, L90V, V97I
VL: B1 VL with T18R, R61S, N68H, N72S, N73S
B27: 2.3.18-1 (antibody, human IgG1, kappa, V domains shown)
VH: B1 VH with Q3H, L5S, L90V, V97I
VL: B1 VL with T18R, R61S, N68H, N72S, N73S
B28: 1.12.17-1 (antibody, human IgG1, kappa, V domains shown)
VH: B1 VH with W37V
VL: B1 VL with R14S, A19V, A56S, V79I
B29: 1.13.17-1 (antibody, human IgG1, kappa, V domains shown)
VH: B1 VH with I34M, W37V
VL: B1 VL with R14S, A19V, A56S, V79I
B30: 1.14.17-1 (antibody, human IgG1, kappa, V domains shown)
VH: B1 VH with I34M, W37V, F83A
VL: B1 VL with R14S, A19V, A56S, V79I
B31: 1.1.35-1 (antibody, human IgG1, kappa, V domains shown)
VH: B1 VH
VL: DIQMTQSPSSLSASVGDRVTITCQANGYLNWYQQKPGKAPKLLIYDGSNLETGVPSRFSGSRWGQEYTLTISSLQPEDIATYFCQVYEFVGPGTNLDIKR
B32: 1.31.35-1 (antibody, human IgG1, kappa, V domains shown)
VH: B1 VH with L5V, A10E, V97T
VL: B31 VL
B33: 1.32.35-1 (antibody, human IgG1, kappa, V domains shown)
VH: B1 VH with L5V, A10E, S105T
VL: B31 VL
B34: 1.33.35-1 (antibody, human IgG1, kappa, V domains shown)
VH: B1 VH with L5V, A10E, T12K, E23K, S69T, V97T
VL: B31 VL
B35: 1.34.35-1 (antibody, human IgG1, kappa, V domains shown)
VH: B1 VH with L5V, A10E, T12K, E23K, S69T, S105T
VL: B31 VL
B36: 1.35.35-1 (antibody, human IgG1, kappa, V domains shown)
VH: QVQLVQSGAEVKKPGASVRVSCKASGYNIRDYFMHWWRQAPGQGLQWVGWINPKTGQPNNPRQFQGRVTMTRHASWDFDTFSFYMDLSRLRSDDTATYFCARQRTDYWDFDVWGQGTMVTVSS
VL: B31 VL
B37: 1.36.35-1 (antibody, human IgG1, kappa, V domains shown)
VH: B36 VH with F83A
VL: B31 VL

Biological target: HIV-1 envelope glycoprotein (gp120) of virus VS001 (HIV-1)
Test: cell-based or functional assay

Row | Binder | Neutralization IC50
1 | B1 | 0.16 µg/mL
2 | B2 | 0.15 µg/mL
3 | B3 | 0.22 µg/mL
4 | B4 | 3.03 µg/mL
5 | B5 | 2.41 µg/mL
6 | B6 | 2.1 µg/mL
7 | B7 | 1.92 µg/mL
8 | B8 | 2.4 µg/mL
9 | B9 | 0.56 µg/mL
10 | B10 | 1.48 µg/mL
11 | B11 | 1.5 µg/mL
12 | B12 | 0.45 µg/mL
13 | B13 | 0.49 µg/mL
14 | B14 | 0.37 µg/mL
15 | B15 | 0.85 µg/mL
16 | B16 | 0.39 µg/mL
17 | B17 | 0.3 µg/mL
18 | B18 | 0.27 µg/mL
19 | B19 | 0.47 µg/mL
20 | B20 | 3.3 µg/mL
21 | B21 | 2.21 µg/mL
22 | B22 | 4.38 µg/mL
23 | B23 | 4.54 µg/mL
24 | B24 | 3 µg/mL
25 | B25 | 3.52 µg/mL
26 | B26 | 2.51 µg/mL
27 | B27 | 2.37 µg/mL

Biological target: HIV-1 envelope glycoprotein (gp120) of virus 7141 (HIV-1)
Test: cell-based or functional assay

Row | Binder | Neutralization IC50
28 | B1 | 4.35 µg/mL
29 | B2 | 1.75 µg/mL
30 | B3 | 2.56 µg/mL
31 | B4 | 16.9 µg/mL
32 | B5 | 24.5 µg/mL
33 | B6 | 7.08 µg/mL
34 | B7 | 23.8 µg/mL
35 | B8 | 20.2 µg/mL
36 | B9 | 13.2 µg/mL
37 | B10 | 3.8 µg/mL
38 | B11 | 15.5 µg/mL
39 | B12 | 5.13 µg/mL
40 | B13 | 9.1 µg/mL
41 | B14 | 1.99 µg/mL
42 | B15 | 5.93 µg/mL
43 | B16 | 6.92 µg/mL
44 | B17 | 5.65 µg/mL
45 | B18 | 1.58 µg/mL
46 | B19 | 5.08 µg/mL
47 | B20 | 29.5 µg/mL
48 | B21 | 25.5 µg/mL
49 | B22 | 6.28 µg/mL
50 | B23 | 31.3 µg/mL
51 | B24 | 22.7 µg/mL
52 | B25 | > 9.8 µg/mL
53 | B26 | 5.04 µg/mL
54 | B27 | > 23 µg/mL

Biological target: HIV-1 envelope glycoprotein (gp120) of virus 92US727 (HIV-1)
Test: cell-based or functional assay

Row | Binder | Neutralization IC50
55 | B1 | 3.54 µg/mL
56 | B2 | 13.1 µg/mL
57 | B3 | 11.1 µg/mL
58 | B4 | > 50 µg/mL
59 | B5 | > 41 µg/mL
60 | B6 | > 50 µg/mL
61 | B7 | > 50 µg/mL
62 | B8 | > 50 µg/mL
63 | B9 | > 21 µg/mL
64 | B10 | > 50 µg/mL
65 | B11 | > 38 µg/mL
66 | B12 | > 50 µg/mL
67 | B13 | > 33 µg/mL
68 | B14 | > 50 µg/mL
69 | B15 | > 50 µg/mL
70 | B16 | > 50 µg/mL
71 | B17 | > 50 µg/mL
72 | B18 | > 50 µg/mL
73 | B19 | > 50 µg/mL
74 | B20 | > 50 µg/mL
75 | B21 | > 50 µg/mL
76 | B22 | > 50 µg/mL
77 | B23 | > 50 µg/mL
78 | B24 | > 50 µg/mL
79 | B25 | > 9.8 µg/mL
80 | B26 | > 34 µg/mL
81 | B27 | > 23 µg/mL

Biological target: BSA (UniProt P02769)
Test: single-point ELISA

Row | Binder | ELISA (A450)
82 | B28 | 0.06 A450
83 | B29 | 0.06 A450
84 | B30 | 0.1 A450
85 | B31 | 0.08 A450
86 | B32 | 0.06 A450
87 | B33 | 0.06 A450
88 | B34 | 0.07 A450
89 | B35 | 0.06 A450
90 | B36 | 0.06 A450
91 | B37 | 0.06 A450

— US20220089698A1
